Test results as given in article PMC3986302 (International Journal of Nanomedicine, 2014).

Molecular target: T1, full-length p63 (GST-fusion) (human, UniProt Q9H3D4 1-680)
T1 sequence (looked up): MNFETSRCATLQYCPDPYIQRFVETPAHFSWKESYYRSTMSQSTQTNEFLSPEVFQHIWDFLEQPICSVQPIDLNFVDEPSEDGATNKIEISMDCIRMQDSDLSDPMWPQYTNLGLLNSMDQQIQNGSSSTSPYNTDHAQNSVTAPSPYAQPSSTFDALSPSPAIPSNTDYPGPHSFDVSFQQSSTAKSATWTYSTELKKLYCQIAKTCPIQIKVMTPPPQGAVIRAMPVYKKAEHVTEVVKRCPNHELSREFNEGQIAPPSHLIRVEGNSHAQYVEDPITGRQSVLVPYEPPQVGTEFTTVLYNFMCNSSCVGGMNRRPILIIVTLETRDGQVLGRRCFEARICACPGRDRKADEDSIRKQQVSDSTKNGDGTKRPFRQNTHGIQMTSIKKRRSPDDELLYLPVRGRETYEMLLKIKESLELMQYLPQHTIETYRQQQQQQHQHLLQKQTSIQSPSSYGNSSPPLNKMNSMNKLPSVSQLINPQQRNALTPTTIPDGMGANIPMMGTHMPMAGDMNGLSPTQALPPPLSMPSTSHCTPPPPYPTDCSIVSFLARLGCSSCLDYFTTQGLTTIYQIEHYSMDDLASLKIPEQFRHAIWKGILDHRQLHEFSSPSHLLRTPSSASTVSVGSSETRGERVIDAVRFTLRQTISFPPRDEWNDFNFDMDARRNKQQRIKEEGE
Experiment: atomic force spectroscopy

LSTAADMQGVVTDGMASGLDKDYLKPDD [p28]: binds.
